Patent publication US20070086956A1, “Method for accelerating the rate of mucociliary clearance” (BAYER AKTIENGESELLSCHAFT, priority 1998, published 2007)
Entries after “also recorded” stand apart in the source; their conditions may differ.

Tested on: guinea pig trachea
Assay: Tracheal mucus velocity (TMV) in the guinea-pig
Assay type: in vivo
Conditions: 5 ug tracheal instillation; 1.5 to 2.5 hours following administration; FIG. 16(c)
Experimental: The aim of this study was to investigate the effect of the Kunitz family serine protease inhibitor Bikunin on guinea-pig tracheal mucus velocity 1.5 hours post treatment. This agent was delivered into the cephalad trachea by topical instillation. TMV was monitored 1.5 hours later for 60 mins. The procedure used in this Example is described in Newton et al. in “Cila, Mucus and Mucociliary Interactions,” Ed., Baum, G. L. et al., Marcel Dekker, New York, 1998; Newton et al., Ped. Pulm. S17, Abs. 364, 1998). […]
TMV was monitored using a lead collimated miniature Beta particle detector probe arranged to detect the radioactivity emitted from an injected aliquot of ^32P-labelled Saccharomyces cerevisiae as it was transported on the tracheal mucociliary layer of an anaesthetized guinea pig (Newton and Hall 1998) FIG. 16(a) illustrates the arrangement of the syringe and beta probe. FIG. 16(b) illustrates the counts detected by the probe as the ^32P-labelled S. cerevisiae is transported along the tracheal mucociliary layer. […]
The aim of this comparative study was to investigate the effect of hypertonic saline (14.4%×5 min) on guinea-pig tracheal mucus velocity. […] TMV was monitored immediately and every 15 minutes for 30 minutes. […]

B1: CHO Bikunin (1-170): Glycosylated placental bikunin (1-170), SEQ ID NO: 52, expressed in Chinese hamster ovary cells (Example 17) (protein, listed as Homo sapiens)
chain: ADRERSIHDFCLVSKVVGRCRASMPRWWYNVTDGSCQLFVYGGCDGNSNNYLTKEECLKKCATVTENATGDLATSRNAADSSVPSAPRRQDSEDHSSDMFNYEEYCTANAVTGPCRASFPRWYFDVERNSCNNFIYGGCRGNKNSYRSEEACMLRCFRQQENPPLPLGSK
modifications: glycosylated, CHO-expressed
B1 was tested, and the TMV was “increased TMV; also recorded: sustained increase in TMV”.
